Assay results taken from patent publication US8563520B2, “Treatment of ocular disease with inhibitors of alpha2 macroglobulin protein” (McGill University, priority 2005, dated 2013).

System: retinal ganglion cells (RGCs)
Assay: RGC loss after intraocular injection of α2 macroglobulin protein in normal eyes
Format: in vivo, rat
Experimental: RGCs were labeled with 3% DII (1,1-dioctadecyl-3,3,3,3-tetramethylindocarbocyanine perchlorate) or with 3% fluorogold. Briefly, Wistar rats were anesthetized and their heads were mounted in a stereotactic apparatus.
7 days after dye injection, the vasculature of the rats were perfused-fixed (transcardiac perfusion in phosphate-buffer (PB), followed by 4% PFA in PB) and the eyes were enucleated. After post-fixing for 1 hour cuts were made through the sclera to form a Maltese cross pattern and retinas detached from the eyecup at the optic nerve head. The retinas were flat-mounted on glass slides (vitreous side up) air-dried and cover-slipped with mounting medium (Molecular Probes). The retinas were observed under fluorescence microscopy (Zeiss). […] RGCs were recognized in flat mounted retinas by the presence of retrogradely transported dye and by morphology. RGCs in all 4 quadrants (16 images per retina) were averaged and presented as […] of area counted.
To evaluate the potential role of α2 macroglobulin in the death of RGCs, α2 macrobglobulin protein was microinjected in normal eyes to determine whether glaucoma-like RGC death ensued. In this paradigm, a total of 1-2 μg of α2 macroglobulin were delivered by a single intraocular injection in normal eyes, and surviving RGCs were counted at days 14 or 28 post-injection, by retrograde labeling. […]

B1: α2m: α2 macroglobulin protein injected intraocularly into normal rat eyes (protein, UniProt P06238 28-1472, looked up)
Alpha-2-macroglobulin: SAPQKPIYMVMVPSLLHAGTPEKACFLFSHLNETVAVRVSLESVRGNQSLFTDLVVDKDLFHCTSFTVPQSSSDEVMFFTVQVKGATHEFRRRSTVLVKKKESLVFAQTDKPIYKPGQTVRFRVVSLDESFHPLNELIPLLYIQDPKNNRIAQWQNFNLEGGLKQLSFPLSSEPTQGSYKVVIRTESGRTVEHPFSVEEFVLPKFEVRVTVPETITILEEEMNVSVCGIYTYGKPVPGRVTVNICRKYSNPSNCFGEESVAFCEKLSQQLDGRGCFSQLVKTKSFQLKRQEYEMQLDVHAKIQEEGTGVEETGKGLTKITRTITKLSFVNVDSHFRQGIPFVGQVLLVDGRGTPIPYETIFIGADEANLYINTTTDKHGLARFSINTDDIMGTSLTVRAKYKDSNACYGFRWLTEENVEAWHTAYAVFSPSRSFLHLESLPDKLRCDQTLEVQAHYILNGEAMQELKELVFYYLMMAKGGIVRAGTHVLPLKQGQMRGHFSILISMETDLAPVARLVLYAILPNGEVVGDTAKYEIENCLANKVDLVFRPNSGLPATRALLSVMASPQSLCGLRAVDQSVLLMKPETELSASLIYDLLPVKDLTGFPQGADQREEDTNGCVKQNDTYINGILYSPVQNTNEEDMYGFLKDMGLKVFTNSNIRKPKVCERLRDNKGIPAAYHLVSQSHMDAFLESSESPTETRRSYFPETWIWDLVVVDSAGVAEVEVTVPDTITEWKAGAFCLSNDTGLGLSPVVQFQAFQPFFVELTMPYSVIRGEAFTLKATVLNYLPTCIRVAVQLEASPDFLAAPEEKEQRSHCICMNQRHTASWAVIPKSLGNVNFTVSAEALNSKELCGNEVPVVPEQGKKDTIIKSLLVEPEGLENEVTFNSLLCPMGAEVSELIALKLPSDVVEESARASVTVLGDILGSAMQNTQDLLKMPYGCGEQNMVLFAPNIYVLDYLNETQQLTQEIKTKAIAYLNTGYQRQLNYKHRDGSYSTFGDKPGRNHANTWLTAFVLKSFAQARKYIFIDEVHITQALLWLSQQQKDNGCFRSSGSLLNNAMKGGVEDEVTLSAYITIALLEMSLPVTHPVVRNALFCLDTAWKSARGGAGGSHVYTKALLAYAFALAGNQDTKKEILKSLDEEAVKEEDSVHWTRPQKPSVSVALWYQPQAPSAEVEMTAYVLLAYLTTEPAPTQEDLTAAMLIVKWLTKQQNSHGGFSSTQDTVVALHALSKYGSATFTRAKKAAQVTIHSSGTFSTKFQVNNNNQLLLQRVTLPTVPGDYTVKVTGEGCVYLQTSLKYSVLPREEEFPFTVVVQTLPGTCEDPKAHTSFQISLNISYTGSRSESNMAIADVKMVSGFIPLKPTVKMLERSVHVSRTEVSNNHVLIYLDKVSNQTVNLSFTVQQDIPIRDLKPAVVKVYDYYEKDEFAVAKYSAPCSTDYGNA
RGC losses compared to vehicle PBS (2 weeks after single intraocular injection of 1-2 μg in normal eyes): 11±3%
RGC losses compared to vehicle PBS (4 weeks after single intraocular injection of 1-2 μg in normal eyes): 28±11%
